A short description of the data set: yeast display, Sf9 membrane polyspecificity reagent, FACS + sequencing; frameworks hold sequencing errors. Summed up:
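Using colony PCR, genes from sorted yeast display clones were amplified, then sequenced on MiSeq at 2 × 250 and filtered by CDR length. The clones had been stained with 10% biotinylated, detergent-solubilized Sf9 membrane reagent for 1 hour at 4 °C and sorted by FACS into low and high (top ~1%) gates on anti-HA and streptavidin fluorescence. Polyreactivity labels come from the gate of origin.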
Take “QVQLVESGGGLVQAGGSLRLSCAASGITFYLYAMGWYRQAPGKERELVAAISGRGGITYYADSVKGRFTISRDNAKNTVYLQMNSLKPEDTAVYYCAAGKLIWGQGTQVTVSS”: the “polyreactivity (PSR sort gate)” value is “high polyreactivity”.
For the sequence “QVQLVESGGGLVQAGGSLRLSCAASGITFYPYAMGWYRQAPGKERELVAAISFSGGSTYYADSVKGRFTISRDNAKNTVYLQMNSLKPEDTAVYYCAADRRSGDDYWGQGTQVTVSS”, the “polyreactivity (PSR sort gate)” value is “high polyreactivity”.
As for “QVQLVESGGGLVQAGGSLRLSCAASGITFYPYAMGWYRQAPGTERELVAAITGSGGRTYYADSVKGRFTISRDNAKNTVYLQMNSLKPEDTAVYYCAKVARYPDMGYWGQGTQVTVSS”, the “polyreactivity (PSR sort gate)” value is “high polyreactivity”.
“QVQLVESGGGLVQAGGSLRLSCAASGITFYTYVMGWYRQAHGKERELVAAITNADSTYYADSVKGRFTISRDNAKNTVYLQMNSLKPEDTAVYYCAADWYWGGIVDSWGQGTQVTVSS”: the “polyreactivity (PSR sort gate)” value is recorded as “high polyreactivity”.
In the case of “QVQLVESGGGLVQAGGSLRLSCAASGITFYVNAMGWYRQAPGKERELVAAINSGSTNYADSVKGRFTISRDNAKNTVYLQMNSLKPEDTAVYYCAVDVYWEFSPEYDYWGQGTQVTVSS”, the “polyreactivity (PSR sort gate)” value is “low polyreactivity”.
To “QVQLVESGGGLVQAGGSLRLSCAASGITFYVNAMGWYRQAPGKERELVAAITQSVDITSYADSVKGRFTISRDNAMNTFYLQINRLKPEYTAVYYCATRGIPDDNARDYWGQGTQVTVSS” belongs “low polyreactivity”; to “QVQLVESGGGLVQAGGSLRLSCAASGITFYVYAMGWYRQAPGKERELVAAISGSGGNTYYADSVKGRFTISRDNAKNTVYVQMNSLKPEDTAVYYCNADDHSPYYCDLDYWGQGTQVTVSS”, “low polyreactivity”.
To “QVQLVESGGGLVQAGGSLRLSCAASGITFYYYAMGWYRPAPGKERELVADITGTGSRTYYADSVKGRFTISRDNAKNTVYLQMNSLKPEDTAVYYCAATKRFPWFVYGEGDSWGQGTQVTVSS” belongs “high polyreactivity”.
For “QVQLVESGGGLVQAGGSLRLSCAASGITFYYYAMGWYRQAPGKERELVAAISTRDGNTYYADSVKGRFTISRDNAKNTVYLQMNSLKPEDTAVYYCAADYFRYYPYDYWGQGTQVTVSS”, the “polyreactivity (PSR sort gate)” value is listed as “low polyreactivity”.
In the case of “QVQLVESGGGLVQAGGSLRLSCAASGITFYYYAMGWYRQAPGKERELVASISSVGSTYYADSVKGRFTISRDNAKNTVYLQMNSLKPEDTAVYYCAAVDYVRYYPDEFDYWGQGTQVTVSS”, the “polyreactivity (PSR sort gate)” value was “low polyreactivity”.
For “QVQLVESGGGLVQAGGSLRLSCAASGITFYYYTMGGYRQAPGKERELVAGITRGGRTYYADSVKGRFTISRDNAKNTVYLQMNSLKPEDTAVYYCNADPWWRFDYWGQGTQVTVSS” the value was “low polyreactivity”; for “QVQLVESGGGLVQAGGSLRLSCAASGITFYYYTMGWYRQAPGKERELVAAITSRGGNTYYADSVKGRFTISRDYAKNTVYLQMNSLKPEDTAVYFCAASRFSSRGYGYWGQGTQVTVCS”, “high polyreactivity”; for “QVQLVESGGGLVQAGGSLRLSCAASGITFYYYVMGWYRQAPGKERELVASISRGGSTYYADSVKGRFTISRDNAKNTVYLQMNSLKPEDTAVYYCAAAGNRPWSITPFRKRYGYNYWGQGSQVTVSS”, “high polyreactivity”.
For “QVQLVESGGGLVQAGGSLRLSCAASGITIKRYPMGWYRQAPGKEREFVATSSQSGTSTYYADSVKGRFTISRDNAKYTVYLQLNSLKPEDTAVYYCAADYIGYWYGYYSWGQGTQVTVSS” the value was “low polyreactivity”; for “QVQLVESGGGLVQAGGSLRLSCAASGITIRYYTMGWYRQAPGKERELVASISWSGTSTHYADSVKGRFTISRDNAKNTVYLQMNSLKPEDTAVYYCAATITSLAGGYRNGYTSYYWGQGTQVTVSS”, “high polyreactivity”; for “QVQLVESGGGLVQAGGSLRLSCAASGITIRYYTMGWYRQAPGKESELVASISWSGTSTHYADSVKGRFTISRDNAKNTVYLQMNSLKPEDTAVYYCAATITSLAGVYRNGYTSYYWGQGTQVTVSS”, “high polyreactivity”.
As for “QVQLVESGGGLVQAGGSLRLSCAASGITISYYAMGWYRQAPGKERELVAAISFSGARTYYADSVKGRFTISRDNAKNTVYLQMNSLKPEDTAVYYCNAVSGIVQRYDYWGQGTQVTVSS”, the “polyreactivity (PSR sort gate)” value is “high polyreactivity”.
For “QVQLVESGGGLVQAGGSLRLSCAASGITIVRYAMGWYRQAPGKERELVAAINRSGGSTYYADSVKGRFTISRDNAKNTVYLQMNSLKPEDTAVYYCAARLYGKYDPPGYYYWGQVTQVTVSS” the value was “high polyreactivity”.
For “QVQLVESGGGLVQAGGSLRLSCAASGITIWGYTMGWYRQAPGKERELVAAITSTGSTYYADSVKGRFTISRDNAKNHVYFQMNSQKPEDTSVYYCAATRGSSDYYYWGQGTQVTVSS” the value was “low polyreactivity”.
To “QVQLVESGGGLVQAGGSLRLSCAASGITIYIYAMGWYRQAPGKERELVAAISDVGSTHYADSVKGRFTISRDNAKNTVYLQMNSLKPEDTAVYYCNADYYWFFVFFDYDYWGQGTQVSVSS” belongs “low polyreactivity”; to “QVQLVESGGGLVQAGGSLRLSCAASGITLALYAMGWYIQAPGKERELVAAISWTGGSTYYADSVKGRFTISRDNAKNTVYLQMNSLKPEDPAVYYCNAVPGPPHSYLGGDYWGQGTQVTVSS”, “high polyreactivity”; to “QVQLVESGGGLVQAGGSLRLSCAASGITLARNAMGWYRQAPGKERELVASITWSGGTTYYADSVKGRFTISRDNAKNTVYLQMISLKPEDTAVYYCAASAKLHYYRTYRYNYWGQGTQVSVSS”, “high polyreactivity”.
Turning to “QVQLVESGGGLVQAGGSLRLSCAASGITLFYSAMGWYRQAPGKERELVAAISWSGGSTYYADSVKGRFTISRDNAKNTVYLQMNSLKPEDTAVYYCAAGYIRFYRSREYWGQGTQVTVSS”, the “polyreactivity (PSR sort gate)” value is recorded as “high polyreactivity”.
“QVQLVESGGGLVQAGGSLRLSCAASGITLFYYAMGWYRQAPGKERELVAVISASGGSTYYADSVKGRFTISRDNAKNTVYLQMNSLKPEDTAVYYCAAVAYWRSSSWYYYWGQGTQVTVSS”: the “polyreactivity (PSR sort gate)” value is given as “high polyreactivity”.
Consider “QVQLVESGGGLVQAGGSLRLSCAASGITLGAYAMGWYRQAPGKERELVAAISRSGGSTYYADSVKGRFTISRDNAKNTVYLQMNSLKPEDTAVYYCNAPRFVSYDYWGQGTQVTVSS”, for which the “polyreactivity (PSR sort gate)” value is recorded as “high polyreactivity”.
For “QVQLVESGGGLVQAGGSLRLSCAASGITLGRYAMGWYRQAPGKERELVAAISWSGGTTYYADSVKGRFTISRDTAKNTVDLQMNSLKPEDTAGYYCTKESPYRQWGWSYYYWGQGTQVTVSS” the value was “high polyreactivity”; for “QVQLVESGGGLVQAGGSLRLSCAASGITLGRYSMGLYRQAPGKVRELVAVISDSGGSTYYADSVKGRFTISRDNAKNTVYLQMNSLKPEYTAVYYCARRFDRYPRYYYWGQGTQVTVSS”, “high polyreactivity”; for “QVQLVESGGGLVQAGGSLRLSCAASGITLRRNTMGWDRQAPGKERELVAAITRSGGSTYYADSVKGRFTISRDNAKNTVYLQMNSLKPEDTAVYYCAKGPSYGGPSHDYWGQGTQVTVSS”, “high polyreactivity”.
“QVQLVESGGGLVQAGGSLRLSCAASGITLTKNAMGWYRQAPGKERELVAGITRGSRTNYADSVKGRFTISRDNAKNSVYLQMNSLIPEDTAVYYCAASYWPYRGPVGGSKMYFWGQGTQVTVSS”: the “polyreactivity (PSR sort gate)” value is “high polyreactivity”.
To “QVQLVESGGGLVQAGGSLRLSCAASGITLYRYVMGWYRQAPGKERELLADISGRGTSTYYADSVKGRFTISRDNAKNTVYLQMNSLNAEDTAVYYCNAEFTKSGALVIPYTYYYAEDYWGQGSQVTVSS” belongs “low polyreactivity”.
For “QVQLVESGGGLVQAGGSLRLSCAASGITLYYYAMGWYRQAPGKEREFVAAITWRGTNTYYADSVKGRFTISRDNAKNTVYLQMNSLKPEDTAVYYCAADYEQRVADYYYWGQGTQVTVSS” the value was “low polyreactivity”.
With “QVQLVESGGGLVQAGGSLRLSCAASGITLYYYTMGWYRQAPGKERELVAAISGSGGSTYYADSVKGRFTISRDNAKNTVYLQMNSLKPEDTAVYYCNTARSLKNHFYKYDYWGHGTQVTVSS”, the “polyreactivity (PSR sort gate)” value is “high polyreactivity”.
As for “QVQLVESGGGLVQAGGSLRLSCAASGITRGSNAMGWYRQAPGTERELVAAITSGSSTYYADSVKGRFTISRDNAKNTVYLQMNSLKPEDTAVYYCAAEWWDVIAPYEYWGQGTQVTVSS”, the “polyreactivity (PSR sort gate)” value is on record as “low polyreactivity”.
For “QVQLVESGGGLVQAGGSLRLSCAASGITSNSYAMGWYRQAPGKERELVATITSGGSTNYADSVKGRFTISRDNAKNSVYLQMNSLKPEDTAVYYCNREDWLPTQYDYWGQGTQVTVSS”, the “polyreactivity (PSR sort gate)” value is recorded as “low polyreactivity”.
Regarding “QVQLVESGGGLVQAGGSLRLSCAASGITSPAYAMGWYRQAPGKEREFVAAISSSGVSTYYADSVKGRFTISRDNAKNTVYLQMNRLKPEDTAVYYCNTVSWPLSSKYYYWGQGTQVTVSS”, the “polyreactivity (PSR sort gate)” value was “high polyreactivity”.
To “QVQLVESGGGLVQAGGSLRLSCAASGITSRPYVMGGYRQAPGKERELVAAISLTGGRTYYADSVKGRFTISRDNAKNTVYLQMNSLKPEDTAVYYCAAKYSNGSGFDYWGQGTQVTVSS” belongs “high polyreactivity”; to “QVQLVESGGGLVQAGGSLRLSCAASGITSRQYAMGWYRQAPGKERELVAAISFSGGRTYYADSVKGRFTISRDNAKNTVYLQMNSLKPEDTAVYYCATRNRYSPRDYWGQGTQVTVSS”, “high polyreactivity”; to “QVQLVESGGGLVQAGGSLRLSCAASGITSSLNAMGWYRQAPGKERELVAAISWRGGSTYYADSVKGRFTISRDNAKNTVNLRMHSLKPEDTAVYYCNVVKRSFRYDYWGQGTQVTVSS”, “high polyreactivity”.
For “QVQLVESGGGLVQAGGSLRLSCAASGITSSYAMGWYRQAPGKERELVAAISRGGSTYYADSVKGRFTISRDNAKNTVYLLLNSLKPEDTAVYYCNKRRYPYGWGQGTLVTVSS” the value was “high polyreactivity”; for “QVQLVESGGGLVQAGGSLRLSCAASGITSVVYAMGWYRQAPGKERELVAAISSAGSTYYADSVKGRFTISRDNAKNTVYLQMNSLKPEDTAVYYCAAAGYPQTYLYYYWGQGTQVTVSS”, “low polyreactivity”.
To “QVQLVESGGGLVQAGGSLRLSCAASGITVNSYAMGWYRQAPGKERELVAAISGSGSSTYYADSVKGRFTISRDNAKNTVYLQMNSLKPEDTAVYYCAATGFSSWTYYTHEYWGQGTQVTVSS” belongs “low polyreactivity”.
